In paper PMC8651795, “eIF2B-capturing viral protein NSs suppresses the integrated stress response” (Nature Communications, 2021) one finds Kd data, which are given here for one molecule.

This assay addresses T1, human eIF2B (heterodecamer of two copies each of the α-, β-, γ-, δ- and ε-subunits) (human, UniProt Q14232;P49770;Q9NR50;Q9UI10;Q13144).
T1 construct: also called eIF2B decamer; copies: 2 + 2 + 2 + 2 + 2
The assay is described as follows: MST. Conditions: both partners purified.

B1: Sandfly fever Sicilian virus (SFSV) nonstructural protein NSs, wild type (natural protein)
chain: MNSQYMFDYPAINIDVRCHRLLSSVSYVAYNKFHTHDVSTYEHCEIPLEKLRLGFGRRNSLADFYSLGELPASWGPACYFSSVKPMMYTFQGMASDLSRFDLTSFSRKGLPNVLKALSWPLGIPDCEIFSICSDRFVRGLQTRDQLMSYILRMGDSHSLDECIVQAHKKILQEARRLGLSDEHYNGYDLFREIGSLVCLRLINAEPFDTASSGEALDVRTVIRSYRASDPSTGLTEYGNSLWTPIHSHVDENDESSSDSDF
notes: also called SFSV NSs; wild-type SFSV NSs; source: E. coli T7 Express, purified (His-tag resin, HiTrap Q, Superdex 200); not shown: His-tag, C-terminal, kept
The molecule B1 had a Kd of 16.9 ± 2.8 nM.

Usually Kd stands for the free concentration of one partner at which half of the binding sites on the other are occupied at equilibrium, for simple one-to-one binding.
